# According to paper PMC5651854, “Reconstitution of human shelterin complexes reveals unexpected stoichiometry and dual pathways to enhance telomerase processivity” (Nature Communications, 2017):
# T1: Human TRF1 (human), P54274
# T1 chain: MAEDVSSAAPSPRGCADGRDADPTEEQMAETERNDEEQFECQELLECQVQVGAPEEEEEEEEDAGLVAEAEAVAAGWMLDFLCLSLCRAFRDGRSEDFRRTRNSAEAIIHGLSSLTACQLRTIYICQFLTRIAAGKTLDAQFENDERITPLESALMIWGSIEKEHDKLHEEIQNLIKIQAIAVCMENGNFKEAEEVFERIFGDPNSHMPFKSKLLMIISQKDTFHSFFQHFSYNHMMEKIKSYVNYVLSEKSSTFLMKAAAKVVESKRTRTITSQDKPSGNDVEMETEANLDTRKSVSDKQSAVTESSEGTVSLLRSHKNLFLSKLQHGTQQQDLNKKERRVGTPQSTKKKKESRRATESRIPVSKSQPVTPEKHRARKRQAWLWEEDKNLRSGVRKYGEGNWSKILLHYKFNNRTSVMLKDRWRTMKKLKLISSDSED
# T2: Human TRF2 (human), Q15554
# T2 chain: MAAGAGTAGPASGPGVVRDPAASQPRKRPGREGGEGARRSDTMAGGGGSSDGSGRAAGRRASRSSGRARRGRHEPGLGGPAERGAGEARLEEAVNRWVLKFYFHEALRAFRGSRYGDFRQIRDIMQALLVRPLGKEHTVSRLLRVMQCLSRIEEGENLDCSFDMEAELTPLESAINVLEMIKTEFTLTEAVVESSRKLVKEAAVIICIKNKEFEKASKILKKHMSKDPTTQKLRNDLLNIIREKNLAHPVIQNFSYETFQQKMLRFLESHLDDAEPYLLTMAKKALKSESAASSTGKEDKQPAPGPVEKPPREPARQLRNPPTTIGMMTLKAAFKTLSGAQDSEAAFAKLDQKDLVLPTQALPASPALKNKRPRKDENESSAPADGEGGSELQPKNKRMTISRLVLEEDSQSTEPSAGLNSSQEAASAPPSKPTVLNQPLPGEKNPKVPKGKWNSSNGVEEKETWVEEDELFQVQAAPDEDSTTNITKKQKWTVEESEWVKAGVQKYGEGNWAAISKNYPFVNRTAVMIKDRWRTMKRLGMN
# T3: Human TIN2 (human, UniProt Q9BSI4-2 1-354)
# T3 construct: cDNA cloned into pFastBac1; called full-length in the discussion; not shown: His6, N-terminal, cleaved; MBP, N-terminal, cleaved
# T3 sequence (looked up): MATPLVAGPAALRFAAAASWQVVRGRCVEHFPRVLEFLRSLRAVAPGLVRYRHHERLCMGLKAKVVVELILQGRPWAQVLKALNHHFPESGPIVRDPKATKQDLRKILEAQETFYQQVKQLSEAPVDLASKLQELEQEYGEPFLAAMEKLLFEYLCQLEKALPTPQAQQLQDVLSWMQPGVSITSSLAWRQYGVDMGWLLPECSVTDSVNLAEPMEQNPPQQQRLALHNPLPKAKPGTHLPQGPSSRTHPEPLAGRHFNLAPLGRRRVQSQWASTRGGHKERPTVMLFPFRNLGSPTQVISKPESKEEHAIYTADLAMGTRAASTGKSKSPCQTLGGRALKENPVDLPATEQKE
# Assays:
# [1] = biological target: mCherry-TIN2S, Q9BSI4-2; test: LacI-LacO array fluorescence colocalization in cells; conditions: U2OS 2-6-3 cell line; n > 50 nuclei per construct from 3 biological replicates; parent: est. 0.90; read off a plot
# [2] = biological target: Human TIN2 (human) (UniProt Q9BSI4); test: SEC-MALS; purified proteins or co-expressed, purified complexes at 1 mg ml^−1, 100 µl on Superose 6 Increase 10/300 GL, 0.5 ml min^−1, 25 °C, 50 mM HEPES pH 7.5, 300 mM NaCl, 1 mM TCEP
# [3] = biological target: eGFP–TPP1–LacI (human) (UniProt Q96AP0); test: LacI–LacO array recruitment (fluorescence colocalisation); eGFP–TPP1–LacI constructs tethered to a LacO array in U2-OS 2-6-3 cells, co-transfected with mCherry-TIN2S; fixed 24 h after transfection; fraction of nuclei with mCherry at the single GFP focus
# Sequence of eGFP–TPP1–LacI (human) (Q96AP0 whole entry): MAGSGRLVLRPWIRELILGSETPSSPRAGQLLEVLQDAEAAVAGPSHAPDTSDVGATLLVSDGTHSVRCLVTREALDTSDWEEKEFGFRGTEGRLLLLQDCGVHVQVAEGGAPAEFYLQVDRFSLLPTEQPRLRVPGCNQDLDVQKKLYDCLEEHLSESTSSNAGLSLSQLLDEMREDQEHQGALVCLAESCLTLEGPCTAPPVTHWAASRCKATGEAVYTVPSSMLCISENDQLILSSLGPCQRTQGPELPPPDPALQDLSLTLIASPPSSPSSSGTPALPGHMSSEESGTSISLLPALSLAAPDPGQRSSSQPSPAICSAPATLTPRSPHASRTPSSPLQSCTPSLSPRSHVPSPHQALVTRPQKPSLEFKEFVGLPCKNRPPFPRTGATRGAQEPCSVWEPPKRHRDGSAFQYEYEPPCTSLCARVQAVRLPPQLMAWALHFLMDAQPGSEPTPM
# [4] = biological target: eGFP–TPP1_(480–544)–LacI (human); test: as above
# Sequence of eGFP–TPP1_(480–544)–LacI (human) (Q96AP0 whole entry): as above
# [5] = biological target: T1, Human TRF1 (human), P54274; test: SEC-MALS; purified proteins or co-expressed, purified complexes at 1 mg ml^−1, 100 µl on Superose 6 Increase 10/300 GL, 0.5 ml min^−1, 25 °C, 50 mM HEPES pH 7.5, 300 mM NaCl, 1 mM TCEP; conditions: remark: other sources report otherwise
# [6] = biological target: T2, Human TRF2 (human), Q15554; test: as above; conditions: remark: other sources report otherwise
# [7] = biological target: T3, Human TIN2; test: as above; conditions: both partners purified
# Sequence of eGFP–TPP1–LacI (from UniProt Q96AP0) NAAIRS 504 (six residues starting at 504 replaced by NAAIRS) (Q96AP0 whole entry, change not shown): as the sequence (Q96AP0 whole entry) above
# Sequence of eGFP–TPP1–LacI (from UniProt Q96AP0) NAAIRS 522 (six residues starting at 522 replaced by NAAIRS) (Q96AP0 whole entry, change not shown): as the sequence (Q96AP0 whole entry) above
# Sequence of eGFP–TPP1–LacI (from UniProt Q96AP0) NAAIRS 539 (six residues starting at 539 replaced by NAAIRS) (Q96AP0 whole entry, change not shown): as the sequence (Q96AP0 whole entry) above
# Sequence of eGFP–TPP1–LacI (from UniProt Q96AP0) NAAIRS 498 (six residues starting at 498 replaced by NAAIRS) (Q96AP0 whole entry, change not shown): as the sequence (Q96AP0 whole entry) above
# Sequence of eGFP–TPP1–LacI (from UniProt Q96AP0) NAAIRS 510 (six residues starting at 510 replaced by NAAIRS) (Q96AP0 whole entry, change not shown): as the sequence (Q96AP0 whole entry) above
# Sequence of eGFP–TPP1–LacI (from UniProt Q96AP0) NAAIRS 516 (six residues starting at 516 replaced by NAAIRS) (Q96AP0 whole entry, change not shown): as the sequence (Q96AP0 whole entry) above
# Sequence of Human TPP1 (Q96AP0 whole entry): as above
# Sequence of eGFP–TPP1–LacI (from UniProt Q96AP0) NAAIRS 480 (six residues starting at 480 replaced by NAAIRS) (Q96AP0 whole entry, change not shown): as the sequence (Q96AP0 whole entry) above
# Sequence of eGFP–TPP1–LacI (from UniProt Q96AP0) NAAIRS 492 (six residues starting at 492 replaced by NAAIRS) (Q96AP0 whole entry, change not shown): as the sequence (Q96AP0 whole entry) above
# Sequence of eGFP–TPP1–LacI (from UniProt Q96AP0) NAAIRS 534 (six residues starting at 534 replaced by NAAIRS) (Q96AP0 whole entry, change not shown): as the sequence (Q96AP0 whole entry) above
# Sequence of eGFP–TPP1–LacI (from UniProt Q96AP0) NAAIRS 486 (six residues starting at 486 replaced by NAAIRS) (Q96AP0 whole entry, change not shown): as the sequence (Q96AP0 whole entry) above
Molecule,other: fraction of colocalization [1],also measured
eGFP–TPP1–LacI (from UniProt Q96AP0) NAAIRS 492 (six residues starting at 492 replaced by NAAIRS),0.93,
eGFP–TPP1–LacI (from UniProt Q96AP0) NAAIRS 539 (six residues starting at 539 replaced by NAAIRS),0.96,
eGFP–TPP1–LacI (from UniProt Q96AP0) NAAIRS 480 (six residues starting at 480 replaced by NAAIRS),0.92,
eGFP–TPP1–LacI (from UniProt Q96AP0) NAAIRS 486 (six residues starting at 486 replaced by NAAIRS),0.94,
eGFP–TPP1–LacI (from UniProt Q96AP0) NAAIRS 510 (six residues starting at 510 replaced by NAAIRS),0.88,
Human TPP1 (from UniProt Q96AP0 1-458) (natural protein),,stoichiometry N (TPP1 per TIN2) [2]: 1
eGFP–TPP1–LacI (from UniProt Q96AP0) NAAIRS 498 (six residues starting at 498 replaced by NAAIRS),0.88,
eGFP–TPP1–LacI (from UniProt Q96AP0) NAAIRS 504 (six residues starting at 504 replaced by NAAIRS),0.92,
eGFP–TPP1–LacI (from UniProt Q96AP0) NAAIRS 534 (six residues starting at 534 replaced by NAAIRS),0.93,
eGFP–TPP1–LacI (from UniProt Q96AP0) NAAIRS 516 (six residues starting at 516 replaced by NAAIRS),0.93,
eGFP–TPP1–LacI (from UniProt Q96AP0) NAAIRS 522 (six residues starting at 522 replaced by NAAIRS),0.87,
mCherry-TIN2S (natural protein) MATPLVAGPAALRFAAAASWQVVRGRCVEHFPRVLEFLRSLRAVAPGLVRYRHHERLCMGLKAKVVVELILQGRPWAQVLKALNHHFPESGPIVRDPKATKQDLRKILEAQETFYQQVKQLSEAPVDLASKLQELEQEYGEPFLAAMEKLLFEYLCQLEKALPTPQAQQLQDVLSWMQPGVSITSSLAWRQYGVDMGWLLPECSVTDSVNLAEPMEQNPPQQQRLALHNPLPKAKPGTHLPQGPSSRTHPEPLAGRHFNLAPLGRRRVQSQWASTRGGHKERPTVMLFPFRNLGSPTQVISKPESKEEHAIYTADLAMGTRAASTGKSKSPCQTLGGRALKENPVDLPATEQKE,,fraction of LacO sites with colocalisation [3]: 90%; fraction of LacO sites with colocalisation [4]: 90%
"Human TRF1, P54274-1 1-439 (natural protein) MAEDVSSAAPSPRGCADGRDADPTEEQMAETERNDEEQFECQELLECQVQVGAPEEEEEEEEDAGLVAEAEAVAAGWMLDFLCLSLCRAFRDGRSEDFRRTRNSAEAIIHGLSSLTACQLRTIYICQFLTRIAAGKTLDAQFENDERITPLESALMIWGSIEKEHDKLHEEIQNLIKIQAIAVCMENGNFKEAEEVFERIFGDPNSHMPFKSKLLMIISQKDTFHSFFQHFSYNHMMEKIKSYVNYVLSEKSSTFLMKAAAKVVESKRTRTITSQDKPSGNDVEMETEANLDTRKSVSDKQSAVTESSEGTVSLLRSHKNLFLSKLQHGTQQQDLNKKERRVGTPQSTKKKKESRRATESRIPVSKSQPVTPEKHRARKRQAWLWEEDKNLRSGVRKYGEGNWSKILLHYKFNNRTSVMLKDRWRTMKKLKLISSDSED",,stoichiometry N (subunits in the oligomer) [5]: 2
"Human TRF2, Q15554 1-542 (natural protein) MAAGAGTAGPASGPGVVRDPAASQPRKRPGREGGEGARRSDTMAGGGGSSDGSGRAAGRRASRSSGRARRGRHEPGLGGPAERGAGEARLEEAVNRWVLKFYFHEALRAFRGSRYGDFRQIRDIMQALLVRPLGKEHTVSRLLRVMQCLSRIEEGENLDCSFDMEAELTPLESAINVLEMIKTEFTLTEAVVESSRKLVKEAAVIICIKNKEFEKASKILKKHMSKDPTTQKLRNDLLNIIREKNLAHPVIQNFSYETFQQKMLRFLESHLDDAEPYLLTMAKKALKSESAASSTGKEDKQPAPGPVEKPPREPARQLRNPPTTIGMMTLKAAFKTLSGAQDSEAAFAKLDQKDLVLPTQALPASPALKNKRPRKDENESSAPADGEGGSELQPKNKRMTISRLVLEEDSQSTEPSAGLNSSQEAASAPPSKPTVLNQPLPGEKNPKVPKGKWNSSNGVEEKETWVEEDELFQVQAAPDEDSTTNITKKQKWTVEESEWVKAGVQKYGEGNWAAISKNYPFVNRTAVMIKDRWRTMKRLGMN",,stoichiometry N (subunits in the oligomer) [6]: 2
"Human TRF2 (natural protein, UniProt Q15554 1-542, looked up, called full-length in the discussion; predicted dimer mass printed as 119 kDa; source: Tni insect cells (baculovirus), alone or co-expressed with other shelterin proteins, purified (final SEC)) MAAGAGTAGPASGPGVVRDPAASQPRKRPGREGGEGARRSDTMAGGGGSSDGSGRAAGRRASRSSGRARRGRHEPGLGGPAERGAGEARLEEAVNRWVLKFYFHEALRAFRGSRYGDFRQIRDIMQALLVRPLGKEHTVSRLLRVMQCLSRIEEGENLDCSFDMEAELTPLESAINVLEMIKTEFTLTEAVVESSRKLVKEAAVIICIKNKEFEKASKILKKHMSKDPTTQKLRNDLLNIIREKNLAHPVIQNFSYETFQQKMLRFLESHLDDAEPYLLTMAKKALKSESAASSTGKEDKQPAPGPVEKPPREPARQLRNPPTTIGMMTLKAAFKTLSGAQDSEAAFAKLDQKDLVLPTQALPASPALKNKRPRKDENESSAPADGEGGSELQPKNKRMTISRLVLEEDSQSTEPSAGLNSSQEAASAPPSKPTVLNQPLPGEKNPKVPKGKWNSSNGVEEKETWVEEDELFQVQAAPDEDSTTNITKKQKWTVEESEWVKAGVQKYGEGNWAAISKNYPFVNRTAVMIKDRWRTMKRLGMN",,stoichiometry N [7]: 2 TRF2 per TIN2
